From patent US7067274B2, “Compositions and methods for the screening pro-apoptotic compounds” (Genentech, Inc., priority 2003, dated 2006)
Substitutions are numbered along the chain they refer to. “Also recorded” adds a separate entry of the source. Read-outs that look alike come from different tables or passages of the source.

B1: MLXBIR3SG: MLXBIR3 chimera with Ser 150 of ML-IAP-BIR mutated to Gly (SEQ ID NO:2) (protein)
chain: MGSSHHHHHHSSGLVPRGSHMLETEEEEEEGAGATLSRGPAFPGMGSEELRLASFYDWPLTAEVPPELLAAAGFFHTGHQDKVRCFFCYGGLQSWKRGDDPWTEHAKWFPGCQFLLRSKGQEYINNIHLTHSL
modifications: Homo sapien
B2: ML-IAP: full-length melanoma inhibitor of apoptosis protein with N-terminal His6-tag (protein)
chain: MGPKDSAKCLHRGPQPSHWAAGDGPTQERCGPRSLGSPVLGLDTCRAWDHVDGQILGQLRPLTEEEEEEGAGATLSRGPAFPGMGSEELRLASFYDWPLTAEVPPELLAAAGFFHTGHQDKVRCFFCYGGLQSWKRGDDPWTEHAKWFPSCQFLLRSKGRDFVHSVQETHSQLLGSWDPWEEPEDAAPVAPSVPASGYPELPTPRREVQSESAQEPGGVSPAEAQRAWWVLEPPGARDVEAQLRRLQEERTCKVCLDRAVSIVFVPCGHLVCAECAPGLQLCPICRAPVRSRVRTFLS
modifications: left off: small tags and cut ends
B3: XIAP-BIR3: third BIR domain of XIAP (residues 252–348) (protein)
chain: NSTNLPRNPSMADYEARIFTFGTWIYSVNKEQLARAGFYALGEGDKVKCFHCGGGLTDWKPSEDPWEQHAKWYPGCKYLLEQKGQEYINNIHLTHSL
modifications: left off: small tags and cut ends
B4: MLXBIR3: ML-IAP-BIR in which amino acids 160–179 were replaced with amino acids 336–348 of XIAP-BIR3 (protein)
chain: TEEEEEEGAGATLSRGPAFPGMGSEELRLASFYDWPLTAEVPPELLAAAGFFHTGHQDKVRCFFCYGGLQSWKRGDDPWTEHAKWFPSCQFLLRSKGQEYINNIHLTHSL
modifications: left off: small tags and cut ends
B5: MLBIR-Q: C-terminally truncated version of ML-IAP-BIR with the same number of amino acids as MLXBIR3 and MLXBIR3SG (protein)
chain: B4 chain with Q98R, E99D, Y100F, I101V, N102H, N103S, I104V, H105Q, L106E, L110Q
modifications: left off: small tags and cut ends

Legend:
MCF7 cells = assay: Inhibition of doxorubicin-induced apoptosis in transfected MCF7 cells; type: cell-based; conditions: MCF7 cells transiently transfected, doxorubicin 0.5 μg/ml
Procedure: MCF7 cells were transiently transfected with the reporter plasmid pCMV-βgal and either vector control alone or BIR domain constructs. Following transfection, cells were exposed to doxorubicin (adriamycin; 0.5 μg/ml), stained with X-gal and apoptosis assessed by counting live and dead transfected cells. Percentage apoptosis represents the mean value of at least four sample points and is representative of three independent experiments.

[1] = target: wild-type mature Smac protein; assay: Fluorescence polarization competition assay, mature Smac protein; type: binding, human; conditions: competition with 5 nM Hid-FAM probe, Ki from IC50
Procedure: A PCR product containing amino acids 56–239 of Smac/DIABLO (accession number SMAC_HUMAN) was cloned into the XbaI/XhoI sites of a pet21b+ (Novagen) generating a C-terminal His6 fusion. Pet21bSmac was transformed into Escherichia coli strain BL21(DE3) competent cells (Stratagene). Overnight cultures were diluted 1:100 and grown at 37° C. in LB media with 50 μg/ml carbenicillin to an A600 of 0.8 with vigorous shaking. Isopropyl-β-D-1-thiogalactopyranoside (IPTG) was added to a final concentration of 1 mM and cultures were grown overnight at 16° C. Cell pellets were resuspended in Buffer A (50 mM Tris (pH 8.0), 300 mM NaCl, 0.5 mM PMSF, 2 mM benzamidine, 5 mM β-mercaptoethanol) with 5 mM imidazole and placed on ice for 30 minutes. Cells were homogenized, microfluidized, and centrifuged at 15,000 rpm for 45 minutes. Supernatant was loaded onto a Ni-NTA agarose column (Qiagen™), washed with 10 column volumes Buffer A with 10 mM imidazole, and eluted with 10 column volumes Buffer A with 300 mM imidazole. Fractions containing Smac protein were pooled, concentrated and loaded on a Superdex™ 200 sizing column. Protein eluted over one column volume into 50 mM Tris (pH 7.6), 300 mM NaCl, 0.5 mM PMSF, 2 mM benzamidine and 5 mM DTT. Fractions containing Smac protein were pooled and dialyzed against 3 changes of buffer containing 50 mM Tris (pH 7.6), 0.5 mM PMSF, 2 mM benzamidine and 5 mM DTT. The dialyzed sample was loaded onto a Q-Sepharose™ FF column (Pharmacia) and eluted over a 10 column volume gradient from zero to 1 M NaCl in buffer 50 mM Tris (pH 7.6), 0.5 mM PMSF, 2 mM benzamidine and 5 mM DTT. The cDNA encoding full-length ML-IAP plus a N-terminal His6-tag was cloned into the pET15b(+) expression vector (Novagen). ML-IAP was expressed in E. coli strain BL21(DE3)pLysS. […] The protein concentration of purified proteins was determined from the absorbance at 280 nm based on the molar absorption coefficients calculated from the Edelhoch relationship (Edelhoch, (1967) Biochemistry 6: 1948–1954).
Samples were read after a 10-minute incubation. Fluorescence polarization values were plotted as a function of the antagonist concentration, and the IC50 values were obtained by fitting the data to a 4-parameter equation using Kaleidagraph™ software (Synergy software; Reading, Pa.). Inhibition constants (Ki) for the antagonists were determined from the IC50 values (Keating et al., (2000) Putting the pieces together: contribution of fluorescence polarization assays to small-molecule lead optimization. Proceedings of SPIE: In-Vitro Diagnostic Instrumentation.).
(§1) The binding affinity of the Hid-FAM probe for each of the BIR domains was determined directly using a fluorescence polarization-based assay and the result is shown graphically in FIG. 8.

ΔCARD human caspase 9 = target: T1, ΔCARD human caspase 9 (Homo sapiens, UniProt P55211, D305A/E304A/E306A); assay: Determination of caspase-9 inhibitory constants (Ac-LEHD-AFC hydrolysis); type: biochemical; conditions: for Ki: read-out: Caspase-9 inhibition Ki(app)
T1 construct: made in house
T1 sequence (P55211 139-315 E304A/D305A/E306A limits assumed): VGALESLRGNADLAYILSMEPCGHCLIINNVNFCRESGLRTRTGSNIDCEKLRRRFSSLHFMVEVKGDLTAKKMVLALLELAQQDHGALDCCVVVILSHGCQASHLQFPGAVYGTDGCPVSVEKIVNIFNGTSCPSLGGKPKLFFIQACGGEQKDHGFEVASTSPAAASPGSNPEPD
T1 sequence (P55211 316-416 limits assumed): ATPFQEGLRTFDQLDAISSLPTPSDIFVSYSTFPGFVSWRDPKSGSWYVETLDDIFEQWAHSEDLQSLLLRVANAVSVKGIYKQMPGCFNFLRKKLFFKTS
Procedure: ΔCARD (caspase recruitment domain) human caspase 9 (lacking the first 138 residues) with Ala substitutions at residues 304 to 306 was produced as described previously (Boatright et al., (2003) Mol Cell 11: 529–541). The third BIR of […] (residues 252–348) was also prepared as described previously (Sun et al., (2000) J Biol Chem 275(43): 33777–81).
Determination of Caspase-9 Inhibitory Constants: Recombinant ΔCARD caspase 9 (300 nM final concentration in the assay) was preactivated in salt-free caspase buffer (20 mM PIPES, 10 mM EDTA, 0.1% CHAPS and 10% (w/v) sucrose, pH 7.2) for 15 min at 37° C. Following this, a range of inhibitor concentrations were preincubated with the enzyme for 20 min at 37° C. The assay was started by the addition of Ac-LEHD-AFC (100 μM final concentration) and measured kinetically for 30 min using an fmax Fluorescence Plate Reader (Molecular Devices) at an excitation wavelength of 405 nm and an emission wavelength of 510 nm. Reaction mixtures were thermostatically controlled at 37° C. The individual Ki values for the inhibitors [I] were determined from the uninhibited substrate hydrolysis rate (vo) and the inhibited rates (vi), so that a plot of (vo/vi)−1 against [I] gives Ki(app), the equilibrium inhibition constant in the presence of substrate (Salvesen and Nagase, (1989) Proteolytic enzymes: A practical approach. R. J. Beynon and J. S. Bond. Oxford, IRL Press: 83–104).

caspase-9 = target: T2, caspase-9 (Homo sapiens, UniProt P55211); conditions: literature; read-out: inhibition constant, caspase-9; cited from earlier work
T2 sequence (P55211 1-416): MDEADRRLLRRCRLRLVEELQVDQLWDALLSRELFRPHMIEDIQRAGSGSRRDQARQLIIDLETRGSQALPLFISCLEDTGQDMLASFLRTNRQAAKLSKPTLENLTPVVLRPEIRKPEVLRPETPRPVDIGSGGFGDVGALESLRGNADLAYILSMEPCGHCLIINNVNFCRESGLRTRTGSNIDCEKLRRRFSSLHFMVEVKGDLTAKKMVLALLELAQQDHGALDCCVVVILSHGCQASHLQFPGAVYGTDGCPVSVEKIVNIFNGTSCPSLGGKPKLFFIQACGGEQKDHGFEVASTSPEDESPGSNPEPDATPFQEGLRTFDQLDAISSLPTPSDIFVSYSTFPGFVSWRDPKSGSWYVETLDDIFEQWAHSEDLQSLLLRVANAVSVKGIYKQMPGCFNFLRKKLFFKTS

[2] = target: Hid-FAM (5-carboxyflourescein-conjugated AVPFAK(5-FAM)K); assay: Fluorescence polarization affinity measurement with Hid-FAM probe; type: binding; conditions: 5 nM Hid-FAM, apparent Kd from EC50
Procedure: Polarization experiments were performed on an Analyst™ HT 96-384 (Molecular Devices Corp.). […] The reactions were read after an incubation time of 10 minutes at room temperature with standard cut-off filters for the fluorescein fluorophore (λex=485 nm; λem=530 nm) in 96-well black HE96 plates (Molecular Devices Corp.). Fluorescence polarization values were plotted as a function of the protein concentration, and the EC50 values were obtained by fitting the data to a 4-parameter equation using Kaleidagraph™ software (Synergy software, Reading, Pa.). The apparent Kd values were determined from the EC50 values.
as §1

[3] = 300 nM ΔCARD caspase 9, 100 μM Ac-LEHD-AFC, 37° C.

| Molecule | inhibition of doxorubicin-induced apoptosis (MCF7 cells) | Ki [1] [nM] | Ki (ΔCARD human caspase 9; [3]) [nM] | Ki (ΔCARD human caspase 9) [nM] | fold lower potency for inhibition of caspase-9 activity relative to XIAP (ΔCARD human caspase 9; relative to XIAP) [fold] | Ki (caspase-9) [nM] | Kd [2] [nM] | fold less potent at inhibiting caspase-9 than XIAP-BIR3 (ΔCARD human caspase 9; relative to XIAP-BIR3) [fold] | fold better at inhibiting caspase-9 than MLBIR-Q (ΔCARD human caspase 9; relative to wild-type ML-IAP-BIR construct of the same length) [fold] |
| --- | --- | --- | --- | --- | --- | --- | --- | --- | --- |
| B1 | significantly more efficient; also recorded: confers resistance | 59 | < 1 | – | – | – | – | – | – |
| B2 | – | – | – | 3000 to 5000 | ~300 | – | – | – | – |
| B3 | confers resistance | 320 | 13 | – | – | 10 to 20 | 105 | – | – |
| B4 | confers resistance | – | 962 | – | – | – | 21 | ~70 | ~5 |
| B5 | – | 54 | 4600 | – | – | – | 20 | – | – |
